Test: label from the status in PepcDB records

Sequence	protein production
MGVSPQVARWFDCDLRSVVDHGVDRLRFTWKLGDPVEAELPSEEPFWMVRRDRFDHFLVEQAANLGARIEDGAAVTAVSAEGDGWLVTVGDRAYRSRTLIAADGARGPLAQWLGFPSQKRRYAQACELDVPLPARPDSTAHFEFGLVRNGYIWVFPKSDGYSIGIGTFRGNDATDFRGLLETYLAGFGVSADLDRIVPHPLCVWDGSQPLHRGSALLVGEAASLTDPFTAEGIRPALLSGMRAAEAIDRAIAGDRNALAGYSRTIQQEWGDSMAWAKRISSVFYRVPNLGYQIGIKRPTAPQRMAQILVGELDYSDIATRVIRRLTTGFLPGMRLEHHHHHH	failed
MGVVLARGAFRERSMLTLPDFPLPDARGRFGPYGGRYVPETLIPALEELEAAYREAKKDPAFLEELDHYLRQFAGRPTPLYHAKRLSEYWGGAQVFLKREDLLHTGAHKINNTLGQALLARRMGKRRVIAETGAGQHGVSVATVAALFGLECVVYMGEEDVRRQALNVFRMKLLGAEVRPVAAGSRTLKDATNEAIRDWITNVRTTFYILGSVVGPHPYPMMVRDFQSVIGEEVKRQSLELFGRLPDALIAAVGGGSNAIGLFAPFAYLPEGRPKLIGVEAAGEGLSTGRHAASIGAGKRGVLHGSYMYLLYDHDGQITPAHSVSAGLDYPGVGPEHSYYADAGVAEYASVTDEEALEGFKLLARLEGIIPALESAHAIAYAAKVVPEMDKDQVVVINLSGRGDKDVTEVMRLLGGEL	not failed
MGWHFQQSVTMPSEWRTLALESDDSYNDFTVIMRRKLQENQVNVVNLEQNIPILRINKQITSDQVASIFKHGREAEKLLMLEVEATFRLANGESYPINAKVNRTFFDNARAALAKSEEREVIWNDMREQVARQLIVKIIALQNQIKRKLEHHHHHH	not failed
MGYCIIIPAYNAARTLPAVVREVLGLGMPCLVVDDGSTDGTSATVEGLGVHLLRHDGNRGKGAALRTGFEWALAHGYSGVVTLDADGQHDPTAIPLLAATARERNVDILIASRDTQFREMAGLRSVWNRFGVWCMRKRTGFTITDSQSGFRWYSARLLKGVSLEASGYHLEMEILMKAWRGGFAIDSLPVAARVADGRATSHFRPVRDTWNICMTFLRHMLEHHHHHH	not failed
MGYEGIIVVDVRDAEAYKECHIPTAISIPGNKINEDTTKRLSKEKVIITYCWGPACNGATKAAAKFAQLGFRVKELIGGIEYWRKENGEVEGTLGAKADLFWNMKKESLEHHHHHH	failed
MGYLKNHWWKRWIRRRGCKLAGGPASVGKRTTLVLEERVELGHLRIVPPRLEIGAYSYVRSGTDLSLVASIGRFCSIGSDCFIGQEKHTHPSDWVSSHPFQHTGTALRYEPALSYAEIGHDVWIGHSAMVMEGVKVGTGAIIATRAVVTRDVPPYAIVAGTPAQVIRYRHPPEIIEGLLASRWWELDSAFLTGLPLDR	failed
MGYQLSATLKGHDQDVRDVVAVDDSKVASVSRDGTVRLWSKDDQWLGTVVYTGQGFLNSVCYDSEKELLLFGGKDTMINGVPLFATSGEDPLYTLIGHQGNVCSLSFQDGVVISGSWDKTAKVWKEGSLVYNLQAHNASVWDAKVVSFSENKFLTASADKTIKLWQNDKVIKTFSGIHNDVVRHLAVVDDGHFISCSNDGLIKLVDMHTGDVLRTYEGHESFVYCIKLLPNGDIVSCGEDRTVRIWSKENGSLKQVITLPAISIWSVDCMSNGDIIVGSSDNLVRIFSQEKSRWASEDEINELSTQVEKSTISSKTIEFDESKLSPYEILQSPGRKEGQIVVVKSPQGTIEAHQFSNSSWKKVGDVVGAGATGNDKKIEFEGKTYDYVFDVDIEDGKPPLKLPINVSDNPYTAADNFLARYELPMSYRDQVVQFILKNTNGISLDQPNDNASSSAVSPSKTSVMKVLPVKQYLIMENYNPDTIFNGIVKINSNEKTFDDEILAQIGGALHDIDESWELLLSFANTIRSNWEIKTPAYDIVRLIVKKLPYSSDIKDYIEEGLGNKNITLTMLTVRILVNCFNNENWGVKLLESNQVYKSIFETIDTEFSQASAKQSQNLAIAVSTLIFNYSALVTKGNSDLELLPIVADAINTKYGPLEEYQECEEAAYRLTVAYGNLATVEPTLRQFANSVTWLANIKRSYGNVPRFKDIFDDLS	failed
MHCALLYSGGKDSTLAALLLDPFYDVTLVSGSFGVRDTDPAQESATAVGFDHVTVDLDPDVAHDAVKQMFDDGYPRNGIQRVHEHAVETVARADWVADADGLGTLDAVADGTRRDDRVPTVDRPLAQSIEDRFDVDYLAPLAGIGRGAIDAMAADRLVVESGPSAEIPKADYEVELRALLRKRYGEGAVADVFPEHTQSRVQGLR	failed
MHELIRDITLCILFAWMLGLLAHFSRQPLILAYLIAGFCIGPFGAGWVKSQESISVISELGLIFMLFMIGLEIDLKKIVRAGKVILFAAGGQLPGGCLLGVLFFAGIGLSLGGGHFDAVYLCIACALSSTVIIVKVLYEKRELDTLPGRITLGVLVLQDIFAILFLAVQPSLANLQVSVILLSIGRVAVLVAAALLVSRYVLPRLFHQIARRPELILLGALAWCFLVAETAERLSLSREMGALIAGVSLSTFPYALDVTAKVTTLRDFFITLFFVALGMTIPVPGLSVIGLALMIAAFTVVSRLVTTFTPLYLMKQGLRASLLPALNLAQISEFSLVVIQTGVTDNHIAAETANAASFAFVVLAVLSTFVMTRSDEIARWAIGPLKRIGLRDLDHGNGHAEEGHEGGHGEARRIVILGFFRAASALLAEIERQAPVLLEQITVVDFNPNVYQTLLSRGLHVIYGDISSADTLLHAGVGKSEMIILSVPDALLKGASNEKLVRHVRTLNPTAMIVATADLLSDVGELYEAGASYVTVTRLSDAHELFTVIEAAQAGLLADKRAELDLRLGERREVLP	failed
MHESRLLLVMHWTEILAVFSFAVSGLAEARRRRLDAVGAFIVAFLTAFGGGTLRDLLLDRRPFYWVEHEQYLLALFVMSLFANRVIRLVSQLVSDRVLIVADAVGLGLFGVLGTQLALDAGVPVFVSVMMGVITAAFGGLLRDVVCNEIPMLLRDNRPYATCAFLGCWLYVGLTHTSLQPSVAVVVATLAIVAGRLATLRWNITLPR	failed
MHHLILGYGYCGYYLAQELLGHHQQVTVVSRQLKKELELSKLQHISHDLEYPFHWSEPDSIIYYLIPPPSQGTCDTFLQQFLNQSSLNAKKIIYFGSSGVYGNHQGAWVDELSACIIDSPRQQRRLDAEQQWLAYCQQHNKELSLLRIAGIYGPNRIPADAAKSKIPIIKPTEAPFTNHIFVKDLALIAYLLGQKQTTSAVYNVADGNPTHMGELQQTVANALGIESASYESFEQAWEKASPMKREFMRASKRLKIDLLKTALGEDIQFTSLYDAVKQSL	failed
MHHQSVLHSGYFHPLLRSWQTAASTVSASNLIYPIFVTDVPDDVQPIASLPGVARYGVNQLEEMLRPLVEAGLRCVLIFGVPSRVPKDEQGSAADSEDSPTIEAVRLLRKTFPSLLVACDVCLCPYTSHGHCGLLSENGAFLSEESRQRLAEVALAYAKAGCQVVAPSDMMDGRVEAIKAALLKHGLGNRVSVMSYSAKFASCFYGPFRDAAQSSPAFGDRRCYQLPPGARGLALRAVARDIQEGADMLMVKPGLPYLDMVREVKDKHPELPLAVYQVSGEFAMLWHGAQAGAFDLRTAVLETMTAFRRAGADIIITYFAPQLLKWLKEE	failed
MHHWVQASSSDFSGTPPQARSGHTAVNVGKSMVVVFGGLVDKKFLSDIIVYDIENKLWFEPECTGSESEGQVGPTPRAFHVAITIDCHMFIFGGRSGGKRLGDFWVLDTDIWQWSELTSFGDLPTPRDFAAAAAIGSQKIVLCGGWDGKKWLSDVYVMDTMSLEWLELSVSGSLPPPRCGHTATMVEKRLLVFGGRGGGGPIMGDLWALKGLIDEERETPGWTQLKLPGQAPSSRCGHTVTSGGHYLLLFGGHGTGGWLSRYDVYYNDTIILDRVTAQWKRLPIGNEPPPPRAYHTMTCIGARHLLIGGFDGKLTFGDLWWLVPEDDPIAKRSSVPQVVNPPEIKESERELDKERGQDGFSIVDLQQKMGISVSSGLRLQIPEESEDQEFVELGTRLIEGDVVDERASMIQMAAQALRQHWKQSTPRTLQLKELGSLLRDYQRLVTRIFTTQSSLTSADFGLPGTKTFTFYHIKSSSELRINDISKLLEEYKTLVI	not failed
MHIKIDDLTGRQVVSLVNEHLHSMTLMSPPESIHALGLEKLRGPEITFWSAWEGDELAGCGALKELDTRHGEIKSMRTSASHLRKGVAKQVLQHIIEEAEKRGYERLSLETGSMASFEPARKLYESFGFQYCEPFADYGEDPNSVFMTKKLLEHHHHHH	not failed
MHIPDGIIPLWQCAVYWAVALINIGIFFYIFSKKPQKERRIVGTGLFAAAAAAVSSISVPSPFGVPVHFFLIPLAAILLGPLTAVIVATLCLVIQFFILGMGGLTSMGANILTMGIGLGVGTYAVYSVVSELDRSLAVFTATFFGIMVATVFHIMILLAAGVAGPEMLMATLIPFYIFVGVIEGAANIFIVSFLERMKPELTMMERV	failed
MHKEENMSDLYLKLVNTPVGKTAAQSLGLPSPAPLKRLKRVDQPFIEGDVLIGAGNGARAIATLGSIVGASPATLHHATGPETLAESAKTSNKAQALDITGEVSGKFSALIFDASGLQKPDELRALYDFFHPTIRKLATNGRVLVIGQDPHTCRKAPQAAAQQALEGFVRAVGKEIGKKGATANLVWIAPNAENQLDSSVRFFLSPRSAYVSGQVVRIGKADEAKATNPVAPLAGKVALVTGASRGIGAAIAETLARDGATVIGLDIPPALEELQKVTGALKGKALACDITDEKAPKLIADFIEKETGGVDFVIHNAGITRDKTLGNMPEHFWDMTIAVNLTAEELIDEELAERKLMRENGRIVCISSISGIAGNFGQTNYSCAKSGVIGYVEAMARHLKNGITINAIAPGFIETQMTAAMPFTIREAGRRMNSLSQGGQPVDVAEAIAWYCNPASAGVNGNVVRVCGQSLIGK	failed
MHLFIEGEIEHLVFPGLKSYIVPVWDLRTYQIFDMALRVHKNIQQRDMVIGRNLGNWILRGLDRMKPSAQVLLPKNTEPSIDKAKRVLQSTRLKPHVNTQTPQNREVDRNLFMSLRNFRSKYPIASMMMIKPPRSTGTTTQYRPYSVGESSLIKPIYARGGFNSVIRKDILQWMVQKR	failed
MHLYDKRPGGGASFSQILGQAKNRQGIFFNTTFAVMGHVAKASGRVTETDIRIATLLMDQMRLTGDARKEAQQAFREGKEPDFDLCSSLQAFRAVTQGRQELVQMFIEIQIQTALSDGELDAAEHAILMTVAQELGYGRLEHHHHHH	failed
MHMQVIQLHHPYEPNQIPNEEVVMVLGFFDGVHKGHQKVIETGKKIAEEKGLKLAVMTFNQHPSIVFQKVLPENMKYLTSLEQKERLMANLGVDILYIVEFTSAFAQLKPQDFVDQYIVNLNSAVAVSGFDYTYGPKEIAGVKQLPTYAQGRFEVVTVPKEEMTGAKISSTRIREKMEAGEMEEVTELLGYIYETEGTVVHGDARGRLLGFPTANVKVKSTVRLPRIGVYAVQIEVGGKWYVGMGSIGHNDTFGEGRDLTVEVYILDFHQDIYGEQVVVRWNHYLRDQVKFNGAEALIDQLKQDERDTADYFQQSEDK	failed
MHNFSFDVDESYAKKNNEILRDAKRLQISALCLGLILGGGAVAVYLFSNGAVWMWMIAIVMVFLALLSFIMIPVIPRQMGNAQTLYDDYELAPAIIAEVNPRDVVLLALVNRNVNPEAKPEWALATRTIVRVGAHERRLGERIPSVAITGRRTVKDQDHWDEISPMPITWGTTDKDIIREAEKTIPHELWAKLEKNRGKLEDVKKTPNNLFKL	failed
MHNSIMNKVAVIGLGNIATRHRRNLKSLFPNVELLVMSASGRIPTEEISDSDGIVTSIEALIEANVELVIVASPAPFHAQHSIPLIEAGIPTLIEKPVTTTREDANAIKKALNEHGTPVAIGYCLRYLPSAQKLKILLDHKAIGTLYNAHIEIGQYLPDWRPSKNYRECVSANEKLGGGALFELSHELDYAQWLLGPLALQHAILRSSDELDLQVEDMADILTLTESGAVASIHLDFLQRKAHRQCSFIGSEGRIDWDLIQNQLTLTTAAEAKVIYSEPEWDKNQMYLAMVTDFIQMIKQQPHNCIAVTDASFTVDLISQIKQKAY	failed

Reference: a protein production outcome set (Wang et al. 2014)
